Earlier results as cited in article PMC3496038.

How the values were obtained:
[1] = molecular target: GluA1 NTD (Rattus norvegicus) (UniProt P19490); assay: analytical ultracentrifugation
[2] = molecular target: GluA3 NTD (Rattus norvegicus) (UniProt P19492); assay: analytical ultracentrifugation

| Kd [1] [nM] | Kd [2] [nM] | Substance |
| --- | --- | --- |
| 100 | – | GluA1 NTD (from UniProt P19490) |
| – | 1000 | GluA3 NTD (from UniProt P19492) |
